The results in this text go back to patent US11510992 (dated 2022).

The target in this test is Conjugate 45b (human, UniProt P0DOX5 203-448 = IgG part). In words: ELISA.

B1: murine Fcγ RIIb (receptor, mouse, UniProt P08101 30-210, looked up)
chain: THDLPKAVVKLEPPWIQVLKEDTVTLTCEGTHNPGNSSTQWFHNGRSIRSQVQASYTFKATVNDSGEYRCQMEQTRLSDPVDLGVISDWLLLQTPQLVFLEGETITLRCHSWRNKLLNRISFFHNEKSVRYHHYSSNFSIPKANHSHSGDYYCKGSLGRTLHQSKPVTITVQGPKSSRSLP
notes: also called mouse FcγR2B/CD32b
On to B1, for which the binding result is listed as “binds”.

B2: human Fcγ RIIb (receptor, UniProt P31994 43-217, looked up)
chain: TPAAPPKAVLKLEPQWINVLQEDSVTLTCRGTHSPESDSIQWFHNGNLIPTHTQPSYRFKANNNDSGEYTCQTGQTSLSDPVHLTVLSEWLVLQTPHLEFQEGETIVLRCHSWKDKPLVKVTFFQNGKSKKFSRSDPNFSIPQANHSHSGDYHCTGNIGYTLYSSKPVTITVQAP
On to B2, for which the binding result is given as “binds”.
